Experimental findings from patent publication US20050287164A1 (INHIBITEX, published 2005) are described below.

In this test the target is T1, Clf40 (A domain of ClfA, AA 40-559, recombinant, six-histidine fusion) (Staphylococcus aureus strain Newman, UniProt Q53653 40-559).
T1 construct: also called ClfA 40
T1 sequence: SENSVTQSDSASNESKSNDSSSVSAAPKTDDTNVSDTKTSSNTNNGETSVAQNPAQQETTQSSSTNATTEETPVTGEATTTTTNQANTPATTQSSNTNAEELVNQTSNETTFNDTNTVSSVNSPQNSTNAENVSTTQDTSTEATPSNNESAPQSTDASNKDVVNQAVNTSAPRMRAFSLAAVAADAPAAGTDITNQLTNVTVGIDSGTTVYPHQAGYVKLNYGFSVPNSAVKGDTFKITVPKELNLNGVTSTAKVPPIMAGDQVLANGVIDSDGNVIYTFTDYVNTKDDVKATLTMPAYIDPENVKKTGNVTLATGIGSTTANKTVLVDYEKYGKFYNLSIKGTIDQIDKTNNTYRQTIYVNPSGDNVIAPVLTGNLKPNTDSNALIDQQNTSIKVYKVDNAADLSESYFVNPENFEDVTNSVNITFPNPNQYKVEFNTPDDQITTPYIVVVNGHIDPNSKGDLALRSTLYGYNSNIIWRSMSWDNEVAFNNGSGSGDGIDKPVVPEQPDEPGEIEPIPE
Nature of the test: Biacore 3000, Mab captured by rabbit anti-mouse Fc, Clf protein in flow.

B1: Monoclonal antibody 12-9 (antibody, V domains shown)
VH: QVQLKESGPGLVAPSQSLSITCAISGFSLSRYSVHWVRQPPGKGLEWLGMIWGGGNTDYNSALKSRLSISKDNSKSQVFLKMNSLQTDDTAMYYCARKGEFYYGYDGFVYWGQGTLVTVSA
VL: NIMMTQSPSSLAVSAGEKVTMSCKSSQSVLYSSNQKNYLAWYQQKPGQSPKLLIYWASTRESGVPDRFTGSGSGTDFTLTISSVQAEDLAVYYCHQYLSSYTFGGGTKLEIK
notes: also called F12-9; Mab 12-9
Consider B1, for which the kon turned out to be 774000 M⁻¹ s⁻¹.
